Results published in patent publication US20140329761A1, “PREVENTION AND TREATMENT OF ACUTE INFLAMMATORY CONDITIONS” (The University of Queensland, priority 2011, published 2014).
Where no end group is shown, it is not given here. [ ]: non-standard residue; d: D form. Cha = N[C@@H](CC1CCCCC1)C(=O)O

Assays:
C3aR [1] = target: T1, C3aR (Homo sapiens, UniProt Q16581); conditions: cited from earlier work
T1 sequence (Q16581 1-482): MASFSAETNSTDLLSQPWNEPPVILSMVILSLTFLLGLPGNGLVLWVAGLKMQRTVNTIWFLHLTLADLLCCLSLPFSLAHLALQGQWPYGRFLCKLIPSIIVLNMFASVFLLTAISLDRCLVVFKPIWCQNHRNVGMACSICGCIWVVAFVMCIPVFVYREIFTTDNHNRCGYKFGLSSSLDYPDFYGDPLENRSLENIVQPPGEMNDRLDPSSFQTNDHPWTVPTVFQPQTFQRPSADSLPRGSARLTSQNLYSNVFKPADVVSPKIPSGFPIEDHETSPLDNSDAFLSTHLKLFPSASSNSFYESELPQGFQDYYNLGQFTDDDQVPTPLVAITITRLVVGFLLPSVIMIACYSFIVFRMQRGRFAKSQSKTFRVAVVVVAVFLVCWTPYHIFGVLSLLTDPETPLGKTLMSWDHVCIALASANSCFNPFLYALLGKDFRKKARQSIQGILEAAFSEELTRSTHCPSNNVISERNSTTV

C3aR [2] = target: T2, C3aR (Mus musculus, UniProt O09047); test: Mouse intestinal I/R injury: alkaline phosphatase (ALP) measurement; assay type: in vivo; conditions: WT mice, I/R induced intestinal injury, 0.01 mg/kg i.v. pre-treatment, compared with vehicle pre-treated WT mice
T2 construct: endogenous in cells; host or cells: live wild-type C57BL/6 mice (in vivo; receptor on neutrophils and other bone-marrow-derived cells)
T2 sequence (O09047 1-477): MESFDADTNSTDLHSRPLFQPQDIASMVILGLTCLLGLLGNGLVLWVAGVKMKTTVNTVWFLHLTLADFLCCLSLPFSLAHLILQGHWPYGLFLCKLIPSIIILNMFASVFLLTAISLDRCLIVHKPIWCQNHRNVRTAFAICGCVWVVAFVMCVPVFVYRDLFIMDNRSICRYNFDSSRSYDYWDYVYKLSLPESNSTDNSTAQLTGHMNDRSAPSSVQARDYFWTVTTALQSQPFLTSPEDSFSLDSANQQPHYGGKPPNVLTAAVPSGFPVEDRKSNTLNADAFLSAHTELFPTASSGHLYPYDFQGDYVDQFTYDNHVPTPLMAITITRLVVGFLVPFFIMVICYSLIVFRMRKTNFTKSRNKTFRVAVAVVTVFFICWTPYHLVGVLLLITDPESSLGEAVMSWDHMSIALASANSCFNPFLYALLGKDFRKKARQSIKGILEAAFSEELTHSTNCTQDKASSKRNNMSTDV
Description: (§1) Male C57BL/6 or C3aR knockout mice were fasted for around 12 hours before experimentation. Mice were anesthetized with 2% isoflurane and oxygen at 2 L/minute throughout the experiment. […] An immediate check of complete shut-off of the blood supply to the small intestine was confirmed visually (ischemia). The abdomen was then covered with moist gauze. After thirty minutes of the ischemia episode, the ligature was removed and restoration of blood supply to the intestine was confirmed visually (reperfusion). The midline laparotomy incision was then closed. Mice were administrated with saline (100 μL) intraperitoneally every hour to compensate for fluid loss. The same procedure was performed on sham-operated mice including a loop of ligature around their arteries; however the arteries were not occluded. After two and half hours of the reperfusion episode, mice were sacrificed, and tissues and blood were harvested. Their small intestines (0.5-1 cm pieces) were snap-frozen in liquid nitrogen and stored at −80° C. for later assays. […]
Intestinal ALP concentrations were measured according to the manufacturer's instructions (ALP reagents; Thermo Scientific, USA). […] The absorbance at 405 was immediately measured in a kinetic manner for 10 minutes at 37° C. The results were calculated as follows: Activity in U/L=ΔAbs/min×Factor.

C3aR [3] = target: T2, C3aR; test: Mouse intestinal I/R injury: myeloperoxidase (MPO) activity of small intestine; assay type: in vivo; conditions: WT mice, 0.01 mg/kg i.v. pre-treatment, compared with vehicle pre-treated WT mice
Description: (§2) Male C57BL/6 or C3aR knockout mice were fasted for around 12 hours before experimentation. Mice were anesthetized with 2% isoflurane and oxygen at 2 L/minute throughout the experiment. […] An immediate check of complete shut-off of the blood supply to the small intestine was confirmed visually (ischemia). The abdomen was then covered with moist gauze. After thirty minutes of the ischemia episode, the ligature was removed and restoration of blood supply to the intestine was confirmed visually (reperfusion). The midline laparotomy incision was then closed. Mice were administrated with saline (100 μL) intraperitoneally every hour to compensate for fluid loss. The same procedure was performed on sham-operated mice including a loop of ligature around their arteries; however the arteries were not occluded. After two and half hours of the reperfusion episode, mice were sacrificed, and tissues and blood were harvested. Their small intestines (0.5-1 cm pieces) were snap-frozen in liquid nitrogen and stored at −80° C. for later assays. […] The blood was centrifuge at 14,000 rpm for 15 min at 4° C., and the resulting plasma stored at −80° C. […]
Snap-frozen ileum (1 cm), excised at sacrifice, was briefly cleaned with ice-cold PBS and weighed. […] MPO activity was assayed spectrophotometrically at the absorbance 460 nm. […] The absorbance was measured using a Rainbow 96-well plate reader after 20 minutes.

C3aR [4] = test: Mouse intestinal I/R injury: circulating neutrophils (white blood cell differentials); assay type: in vivo, mice; conditions: C3aR-/- mice, gut ischemia/reperfusion, 0.01 mg/kg i.v. 10 minutes prior to ischemia
Description: as §1
(§3) To determine white blood cell populations, cell differentials were employed using blood smears and The Kwik-Diff Staining System (Thermo Shandon). […] Samples were counted in triplicate, with a total 100 white blood cells per slide counted, and the number of neutrophils expressed as a percentage of total white blood cells.

C3aR [5] = target: T2, C3aR; test: as above; assay type: in vivo, mice; conditions: WT mice, I/R induced intestinal injury, 0.01 mg/kg i.v. 10 minutes prior to ischemia, compared with vehicle pre-treated WT mice
Description: as §1, §3

C3aR [6] = target: T2, C3aR; test: Mouse intestinal I/R injury: histopathology of small intestine; assay type: in vivo; conditions: WT mice, 0.01 mg/kg i.v. pre-treatment, compared with vehicle pre-treated WT mice; scale 0-5
Description: as §1
At sacrifice, a section of ileum (0.5 cm) was removed and fixed in 4% paraformaldehyde in phosphate buffered saline (PBS) for at least 72 hours. […] Histological assessment was carried out in a blinded fashion using light microscopy at 40× magnification, and scored for severity on a scale of 0-5. […]

C3aR [7] = target: T2, C3aR; test: Mouse intestinal I/R injury: plasma cytokines (Cytometric Bead Array); assay type: in vivo; conditions: WT ischemia/reperfusion mice, 2.5 hours after ischemia
Description: as §2
Cytokines were measured using a Cytometric Bead Array from Becton Dickinson (flow cytometry that allows for the quantification of multiple cytokines simultaneously), using plasma isolated from mice at termination.

C3aR [8] = target: T2, C3aR; test: Mouse spinal cord injury (SCI): circulating white blood cell populations and total WBC counts; assay type: in vivo; conditions: SCI mice, 4 doses of 1 mg/kg s.c. every 6 hours, 24 hours post-injury
Description: Experimental mice were anaesthetized using Zoletil (50 mg/kg) and xylazine (10 mg/kg). Next, a dorsal laminectomy was performed on the 9th thoracic vertebra to expose the underlying spinal cord. Mice were then subjected to a force-controlled, moderate-severe (70 kdyne) contusion injury of the spinal cord using the Infinite Horizon impactor device (Ghasemlou et al., 2005). Post-operatively, mice were given antibiotics for 5 days (Gentamycin; 1 mg/kg) as well as a single dose of Hartmann's solution (1 ml) to prevent dehydration and to compensate for loss of bodily fluids. Bladders of spinal cord-injured mice were voided manually twice daily. […]
Blood samples were collected from experimental animals either via retro-orbital eye bleeds or heart punctures at the time of sacrifice. […] Next, the number of white blood cells per set sample volume was determined using the Countess automated cell counter (Invitrogen) as per manufacturer's instructions. […]
These experiments were performed to test whether C3aR can be used as a therapeutic target to improve the outcome from neurotraumatic events (neuronal death and axonal degeneration at sites of SCI are inevitably linked to neuroinflammation). […] The effect of EP67 treatment on circulating white blood cell populations after SCI relative to saline-treated controls was assessed via flow cytometry and total WBC counts as detailed above.

## FLTChaAR (FLT[Cha]AR)
C3aR [1]; literature (Scully et al. 2010), human C3aR
  functional antagonism at C3aR: functional antagonist of both C3a and the short peptide agonist FWTLAR

## WWGKKYRASKLGLAR (A synthetic EP141)
C3aR [2]
  plasma ALP levels: significantly (P<0.02) reduced
C3aR [1]; literature (Ember et al. 1991; Scully et al. 2010; Denonne et al. 2007)
  C3aR agonist activity: highly potent and selective C3aR agonist
C3aR [3]
  I/R induced MPO activity of the small intestine: significantly (P<0.05) lower
C3aR [4]
  effect on circulating neutrophils (neutrophil mobilization) in C3aR knockout mice: inactive
C3aR [5]
  percentage of circulating neutrophils: significantly (P<0.02) lower
C3aR [6]
  I/R induced intestinal injury (histopathological scores of the small intestine): significantly reduced
C3aR [7]
  IL-6 levels in plasma: no significant change

## YSFKDMP(MeL)aR [EP67]
C3aR [8]; compared to vehicle-treated control mice with SCI
  reduction in the blood granulocyte number: 30%
C3aR [8]; relative to vehicle-treated controls, p=0.07, data not shown
  total WBC count: trend towards a decrease
